Measurements: patent US20120277143A1 (Janssen / Centocor, published 2012)
Each block holds one binder with its values, some of them ahead of it.

Tests used:
human IL13 [1] = molecular target: T1, human IL13 (human, UniProt P35225 35-146, biotinylated in the SPR assays (sites not given)); experiment: cell-based or functional assay
human IL4 [2] = molecular target: T2, human IL4 (human, UniProt P05112 25-153, biotinylated in the SPR and competition assays (sites not given)); experiment: IL4R binding inhibition; repeats Table 17
T2 construct: Peprotech #200-04, mature protein produced in E. coli; also called hIL4; Interleukin 4
T2 sequence: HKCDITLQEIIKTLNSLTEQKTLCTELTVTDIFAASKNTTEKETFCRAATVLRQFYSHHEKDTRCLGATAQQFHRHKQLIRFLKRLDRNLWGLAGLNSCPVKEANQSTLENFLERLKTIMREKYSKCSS
Description: AR protein inhibition of IL4 binding to IL4 RA was assessed using IL4 RA-Fc (R&D Systems), comprising the Gly24-His232 which represents the ECD (SEQ ID NO: 5) fused to a human IgGl-Fc and therefor a disulfide linked homodimer. The protein was conjugated to carboxylated Luminex microspheres according to the manufacturer's protocol. For neutralization experiments, 5000 IL4RA-Fc conjugated beads in 50 μl were added to each well of a 96-well filter plate (Millipore). Biotinylated human IL4 was mixed with an appropriate dilution of AR protein in Luminex Assay Buffer (PBS, 1% BSA, pH 7.4) to give a final concentration of 67 pM IL4. The plate was incubated for 1 hour at RT in the dark on a plate shaker, set to shake vigorously to avoid bead aggregation. The plate was washed twice with 150 μl of wash buffer (PBS, 0.1% BSA, pH 7.4, 0.05% Tween-20) using a vacuum manifold followed by the addition of 50 μl of Streptavidin PE at 25 μg/ml and incubated at RT for 20 minutes. The plates were washed again and 150 μl of sheath fluid was added and the plate was placed on the shaker for 5 minute. Plates were read using a Luminex® 100 system; data were plotted as a function of AR protein concentration. IC₅₀ values were determined by fitting the data to the equation for sigmoidal dose response using PRISM software (GraphPAD PRISM) (Table 6).

human IL4 [3] = molecular target: T2, human IL4; experiment: cell-based or functional assay
human IL13 [4] = molecular target: T1, human IL13; experiment: Affinity to IL13; method not re-described
human IL4 [5] = molecular target: T2, human IL4; experiment: Affinity to IL4; method not re-described
human IL13 R130Q [6] = molecular target: T3, human IL13 R130Q (human, UniProt P35225 35-146, biotinylated (sites not given)); experiment: IL13Ra2 binding inhibition; assay not re-described (Luminex of Example 2)
T3 construct: Peprotech; also called IL13R13Q; R111Q
T3 sequence (P35225 35-146 limits assumed, stated change not applied): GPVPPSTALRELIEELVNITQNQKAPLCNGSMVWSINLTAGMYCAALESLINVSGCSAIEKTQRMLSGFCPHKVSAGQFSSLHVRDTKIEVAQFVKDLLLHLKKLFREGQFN
Description: (§1) Binding protein inhibition of IL13 binding to Rα2 was assessed using IL13Rα2-Fc (R&D Systems) conjugated to carboxylated Luminex microspheres according to the manufacturer's protocol. For biotinylation of IL13, recombinant human IL13 R130Q (Peprotech) was biotinylated at a 4:1 ratio using EZ-Link NHS-LC-Biotin (Pierce, #21336) for 2 hours at RT. The protein was dialyzed in PBS overnight to remove excess biotinylation reagent. For neutralization experiments, 5000 IL13 Rα2-Fc conjugated beads in 50 μl were added to each well of a 96-well filter plate (Millipore). 50 μl of biotinylated human IL13 at 1 ng/ml (80 pM) was mixed with an appropriate dilution of binding protein in Luminex Assay Buffer (PBS, 1% BSA, pH 7.4). The plate was incubated for 1 hour at RT in the dark on a plate shaker, set to shake vigorously to avoid bead aggregation. The plate was washed 3 times with 150 μl of wash buffer (PBS, 1% BSA, pH 7.4, 0.05% Tween-20) using a vacuum manifold followed by the addition of 50 μl of Streptavidin PE at 25 μg/ml and incubated at RT for 20 minutes. The plates were washed again and 100 μl of sheath fluid was added and the plate was placed on the shaker for 1 minute. Plates were read using a Luminex® 100 system; data were plotted as a function of binding protein concentration. IC₅₀ values were determined by fitting the data to the equation for sigmoidal dose response using PRIZM software (GraphPAD PRIZM).

human IL13 R130Q [7] = molecular target: T3, human IL13 R130Q; experiment: IL13Ra2 binding inhibition; repeats Table 17
Description: as §1

human IL4 [8] = molecular target: T2, human IL4; experiment: IL4RA binding inhibition; assay not re-described (Luminex of Example 2)
human IL13 [9] = molecular target: T1, human IL13; experiment: SPR BIAcore, biotin-IL13 on SA chip, global fit
Description: Recombinant human IL13 (Peprotech) was minimally biotinylated on ice using sulfo-NHS-LCLC-Biotin and desalted into the experimental running buffer containing 10 mM HEPES, 150 mM NaCl, pH 7.4, 0.01% Tween-20, and 0.1 mg/mL BSA. Biotinylated IL13 was captured at three different surface densities (from about 150, 50, and 25 RU) onto three different BIAcore SA (streptavidin) sensor chips. Each binding protein sample was tested at 40 nM as the highest concentration in a 3-fold dilution series over the three different density IL13 surfaces. The dissociation phase for the highest concentration of the binding protein sample was monitored for one hour. The response data from each of the different density surfaces was globally fitted in order to extract estimates of the kinetic and affinity constants which are provided in Table 7 below.

human IL13 [10] = molecular target: T1, human IL13; experiment: cell-based or functional assay; remark: listed apart in the source
human IL13 [11] = molecular target: T1, human IL13; experiment: SPR ProteOn, biotin-hIL13 on streptavidin, 1:1 global fit
Description: Complete kinetic data describing binding of various engineered binding protein molecules to human IL13 was measured using a method similar to that described above for the single point affinity analysis. Briefly, streptavidin (Pierce) was immobilized to similar levels (˜1800 RUs) on all six channels of a ProteOn GLC chip via amine coupling (pH 5.0). Biotinylated hIL13 was captured at different surface densities (600˜100 RUs) on different channels. Protein binding was tested starting at 40 nM diluted in a 3-fold concentration series over the different density IL13 surfaces; a buffer sample was injected to monitor the baseline stability. Dissociation phases for all concentrations of each binding protein sample were monitored for one hour at a flow rate of 100 μl/min. Response data for all concentration series from the different density surfaces were globally fit to a 1:1 simple langmuir binding model to extract values of the kinetic (kₒₙ, koff) and affinity (KD) constants provided in Table 16.

human IL13 R130Q [12] = molecular target: T3, human IL13 R130Q; experiment: Luminex competition, 80 pM biotin-IL13 R130Q binding to IL13Ra2-Fc beads
Description: as §1

cyno IL13 = cyno IL13 (cynomolgus monkey, UniProt Q0PW92 21-132); experiment: cell-based or functional assay
cyno IL13, sequence (Q0PW92 entry or part of it): as the sequence (P35225 35-146 limits assumed, stated change not applied) above, with G1S, R10K, M42V, S67N, H83R, L100V counted along it

T1 sequence (P35225 other isoform, or with tags, fused parts or gaps limits assumed): as the sequence (P35225 35-146 limits assumed, stated change not applied) above, with Q110R counted along it

B3: C01_6G9_V1_C06_44C12_V2 (designed binder)
chain: DLDKKLLEAARAGQDDEVRILMANGADVNARDSYGSTPLHLAAREGHLEIVEVLLKYGADVNAADFIGDTPLHLAAYRGHLEIVEVLLKYGADVNASDITGETPLHLAAQIGHLEIVEVLLKHGADVNAQDKFGKTAFDISIDNGNEDLAEILQKLNGGGGSGGGGSGGGGSGGGGSDLGKKLLEAASAGQDDEVHILMANGADVNALDDSGYTPLHLAAEDGHLEIVEVLLKHGADVNAADRLGDTPLHLAAFVGHLEIVEVLLKAGADVNAVDLAGVTPLHVAAFYGHLEIVEVLLKAGADVNAQDKFGKTAFDISIDNGNEDLAEILQKLN
notes: bispecific IL13/IL4 ankyrin repeat protein with (GGGGS)4 linker; also called bispecific AR protein
A549/TARC IL13 IC50 (human IL13 [1]): 0.128 nM | HEK Stat6 human IL13 IC50 (human IL13 [1]): 0.015 nM | IC50 (human IL4 [2]): 0.025 nM | A549/TARC IL4 IC50 (human IL4 [3]): 0.055 nM | HEK stat6 hIL4 IC50 (human IL4 [3]): 0.0072 nM | Ramos Assay IC50 (human IL4 [3]): 0.0086 nM | Kd (human IL13 [4]): 0.0091 nM | Kd (human IL4 [5]): 0.002 nM | IC50 (human IL13 R130Q [6]): 0.023 nM | IC50 (human IL13 R130Q [7]): 0.023 nM | IC50 (human IL4 [8]): 0.025 nM

B4: C01_6G9_V1_C06_53G6_V1 (designed binder)
chain: DLDKKLLEAARAGQDDEVRILMANGADVNARDSYGSTPLHLAAREGHLEIVEVLLKYGADVNAADFIGDTPLHLAAYRGHLEIVEVLLKYGADVNASDITGETPLHLAAQIGHLEIVEVLLKHGADVNAQDKFGKTAFDISIDNGNEDLAEILQKLNGGGGSGGGGSGGGGSGGGGSDLGKKLLEAARAGQDDEVRILMANGADVNATDDWGDTLLHLAATDGHLEIVEVLLKAGADVNANDAIGDTPLHLAALYGHLEIVEVLLKYGADVNATDLHGFTPLHLAAFWGHLEIVEVLLKHGADVNAQDKFGKTAFDISIDNGNEDLAEILQKLN
notes: as for B3
A549/TARC IL13 IC50 (human IL13 [1]): 0.075 nM | HEK Stat6 human IL13 IC50 (human IL13 [1]): 0.015 nM | IC50 (human IL4 [2]): 0.015 nM | A549/TARC IL4 IC50 (human IL4 [3]): 0.024 nM | HEK stat6 hIL4 IC50 (human IL4 [3]): 0.0005 nM | Ramos Assay IC50 (human IL4 [3]): 0.0048 nM | Kd (human IL13 [4]): 0.0093 nM | Kd (human IL4 [5]): 0.0031 nM | IC50 (human IL13 R130Q [6]): 0.099 nM | IC50 (human IL13 R130Q [7]): 0.099 nM | IC50 (human IL4 [8]): 0.015 nM

B6: C06_28E5_V1_C01_6G9_V1 (designed binder)
chain: DLGKKLLEAARAGQDDEVRILMANGADVNAADDSGITPLHLAAEDGHLEIVEVLLKAGADVNAQDNLGDTPLHLAAWTGHLEIVEVLLKAGADVNAYDISGITPLHLAAFYGHLEIVEVLLKHGADVNAQDKFGKTAFDISIDNGNEDLAEILQKLNGGGGSGGGGSGGGGSGGGGSDLDKKLLEAARAGQDDEVRILMANGADVNARDSYGSTPLHLAAREGHLEIVEVLLKYGADVNAADFIGDTPLHLAAYRGHLEIVEVLLKYGADVNASDITGETPLHLAAQIGHLEIVEVLLKHGADVNAQDKFGKTAFDISIDNGNEDLAEILQKLN
notes: bispecific IL4/IL13 ankyrin repeat protein with (GGGGS)4 linker; also called bispecific AR protein
A549/TARC IL13 IC50 (human IL13 [1]): 0.084 nM | HEK Stat6 human IL13 IC50 (human IL13 [1]): 0.019 nM | IC50 (human IL4 [2]): 0.025 nM | A549/TARC IL4 IC50 (human IL4 [3]): 0.039 nM | HEK stat6 hIL4 IC50 (human IL4 [3]): 0.0011 nM | Ramos Assay IC50 (human IL4 [3]): 0.0054 nM | Kd (human IL13 [4]): 0.0106 nM | Kd (human IL4 [5]): 0.0217 nM | IC50 (human IL13 R130Q [6]): 0.036 nM | IC50 (human IL13 R130Q [7]): 0.036 nM | IC50 (human IL4 [8]): 0.025 nM

Second part, the binder after the results:

A549/TARC IL13 IC50 (human IL13 [1]): 0.063 nM | HEK Stat6 human IL13 IC50 (human IL13 [1]): 0.014 nM | IC50 (human IL4 [2]): 0.017 nM | A549/TARC IL4 IC50 (human IL4 [3]): 0.016 nM | HEK stat6 hIL4 IC50 (human IL4 [3]): 0.0007 nM | Ramos Assay IC50 (human IL4 [3]): 0.0058 nM | Kd (human IL13 [4]): 0.0116 nM | Kd (human IL4 [5]): 0.0017 nM | IC50 (human IL13 R130Q [6]): 0.028 nM | IC50 (human IL13 R130Q [7]): 0.028 nM | IC50 (human IL4 [8]): 0.017 nM
B1: C06_44C12_V2_C01_6G9_V1 (designed binder)
chain: DLGKKLLEAASAGQDDEVHILMANGADVNALDDSGYTPLHLAAEDGHLEIVEVLLKHGADVNAADRLGDTPLHLAAFVGHLEIVEVLLKAGADVNAVDLAGVTPLHVAAFYGHLEIVEVLLKAGADVNAQDKFGKTAFDISIDNGNEDLAEILQKLNGGGGSGGGGSGGGGSGGGGSDLDKKLLEAARAGQDDEVRILMANGADVNARDSYGSTPLHLAAREGHLEIVEVLLKYGADVNAADFIGDTPLHLAAYRGHLEIVEVLLKYGADVNASDITGETPLHLAAQIGHLEIVEVLLKHGADVNAQDKFGKTAFDISIDNGNEDLAEILQKLN
notes: as for B6

Kd (human IL13 [9]): 0.11 nM | koff (human IL13 [9]): 9.9e-05 s⁻¹ | kon (human IL13 [9]): 930000 M⁻¹ s⁻¹ | STAT6 Phospho IC50 (human IL13 [10]): 0.055 nM | Kd (human IL13 [11]): 0.00164 nM
B2: 9F8 (designed binder)
chain: DLGKKLLEAARAGQDDEVRILMANGADVNASDIFGSTPLHLAARHGHLEIVEVLLKYGADVNAMDFIGDTPLHLAAYRGHLEIVEVLLKYGVDVNADDHGDTPLHLAASMGHLEIVEVLLKNGADVNAQDKFGKTAFDISIDNGNEDLAEILQKLN
notes: ankyrin repeat protein

Kd (human IL13 [9]): 0.204 nM | koff (human IL13 [9]): 6.25e-05 s⁻¹ | IC50 (human IL13 R130Q [12]): 0.058 nM | STAT6 Phospho IC50 (human IL13 [10]): 0.0105 nM | TARC expression IC50 (human IL13 [10]): 0.354 nM | Cyno IL13 STAT6 IC50 (cyno IL13): 0.162 nM
B5: 7D7 (designed binder)
chain: DLGKKLLEAARAGQDDEVRILMANGADVNATDTYGSTPLHLAARHCHQEIVEVLLKHGADVNANDFIGDTPLHLAAWHGHLEIVEVLLKNGADVNAMDVTGETPLHLAAYHGHLDIVEVLLKNGADVNAQDKFGKTAFDISIDNGNEDLAEILQKLN
notes: N-Cap-(AR)3-C-Cap
